Assay results published in patent CN110840830A (BEIJING DONGFANG BIOTECH CO LTD, dated 2020).

T1: CTLA-4 (antigen coated on ELISA plates and immunotubes) (UniProt P16410 36-161, limits assumed)
T1 construct: also called CTLA-4抗原; 细胞毒性T淋巴细胞相关抗原4
T1 sequence (looked up): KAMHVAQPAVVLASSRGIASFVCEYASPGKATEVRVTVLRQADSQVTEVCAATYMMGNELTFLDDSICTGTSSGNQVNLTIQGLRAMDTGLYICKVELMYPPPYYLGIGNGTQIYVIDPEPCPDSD

T2: 细胞表面CTLA-4抗原 (CTLA-4 on cells) (UniProt P16410 36-223, limits assumed)
T2 construct: whole, on cells; Also used as the target of the mixed lymphocyte reaction rows, where CTLA-4 stands on primary CD4+ T cells; also called 细胞表达的CTLA-4抗原; 过表达CTLA-4抗原的CHO细胞
T2 sequence (looked up): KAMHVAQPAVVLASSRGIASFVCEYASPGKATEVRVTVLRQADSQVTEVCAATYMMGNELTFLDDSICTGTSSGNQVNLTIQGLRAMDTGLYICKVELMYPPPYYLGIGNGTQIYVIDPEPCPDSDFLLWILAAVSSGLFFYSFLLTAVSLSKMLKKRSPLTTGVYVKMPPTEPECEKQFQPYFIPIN


Tests used:
[1] = biological target: T1, CTLA-4 (antigen coated on ELISA plates …); experiment: ELISA, full antibody on coated CTLA-4, anti-human IgG-HRP
[2] = biological target: T2, 细胞表面CTLA-4抗原 (CTLA-4 on cells); experiment: flow cytometry on CHO cells over-expressing CTLA-4, Alexa488 anti-human IgG Fc
[3] = biological target: T2, 细胞表面CTLA-4抗原 (CTLA-4 on cells); experiment: cell-based or functional assay

| Binder | EC50 [1] [µg/mL] | EC50 [2] [µg/mL] | 混合淋巴细胞反应(MLR), CD4+ T细胞增殖 (cck8), EC50 [3] [nM] |
| --- | --- | --- | --- |
| 全抗N-2 (antibody, human IgG1, kappa, V domains shown, also called 抗CTLA-4全抗体N-2) VH: QVQLVESGGGVVQPGRSLRLSCAASGFTFSSIFKRWVRQAPGKGLEWVTFISYDGLDHINGDSVKGRFTISRDNSKNTLYLQMNSLRAEDTAIYYCARRYRWWGKAMDYWGQGTLVTVSS VL: DIVMTQSPLSLPVTPGEPASISCKSSQSVIDSKGYTYLGWYLQKPGQSPQLLIYLGTQKSSGVPDRFSGSGSGTDFTLKISRVEAEDVGVYYCLQRGHIPITFGQGTKLEIKR | 0.11 | 0.00895 | 8.31 |
| 全抗N-8 (antibody, human IgG1, kappa, V domains shown, also called 抗CTLA-4全抗体N-8) VH: QVQLVESGGGVVQPGRSLRLSCAASGFTFSGFSICWVRQAPGKGLEWVTFISYDGLLFLIADSVKGRFTISRDNSKNTLYLQMNSLRAEDTAIYYCARRYRWWGKAMDYWGQGTLVTVSS VL: DIVMTQSPLSLPVTPGEPASISCRSSQTVFDSHGQTYLQWYLQKPGQSPQLLIYGASRQVSGVPDRFSGSGSGTDFTLKISRVEAEDVGVYYCMQVWHLPITFGQGTKLEIKR | 0.164 | 0.00649 | 7.32 |
| 全抗N-1 (antibody, human IgG1, kappa, V domains shown, also called 抗CTLA-4全抗体N-1) VH: QVQLVESGGGVVQPGRSLRLSCAASGFTFSGYNGNWVRQAPGKGLEWVTFISYDGLNDVKADSVKGRFTISRDNSKNTLYLQMNSLRAEDTAIYYCARRYRWWGKAMDYWGQGTLVTVSS VL: DIVMTQSPLSLPVTPGEPASISCKSSQSVIDSKGYTYLGWYLQKPGQSPQLLIYLGTQKSSGVPDRFSGSGSGTDFTLKISRVEAEDVGVYYCLQRGHIPITFGQGTKLEIKR | 0.163 | 0.00709 | 7.34 |
| 全抗N-4 (antibody, human IgG1, kappa, V domains shown, also called 抗CTLA-4全抗体N-4) VH: QVQLVESGGGVVQPGRSLRLSCAASGFTFSAFYNPWVRQAPGKGLEWVTFISYDGVYFHFGDSVKGRFTISRDNSKNTLYLQMNSLRAEDTAIYYCARRYRWWGKAMDYWGQGTLVTVSS VL: DIVMTQSPLSLPVTPGEPASISCKSSQSVIDSKGYTYLGWYLQKPGQSPQLLIYLGTQKSSGVPDRFSGSGSGTDFTLKISRVEAEDVGVYYCLQRGHIPITFGQGTKLEIKR | 0.0922 | 0.0111 | 15.4 |
| 全抗N-7 (antibody, human IgG1, kappa, V domains shown, also called 抗CTLA-4全抗体N-7) VH: QVQLVESGGGVVQPGRSLRLSCAASGFTFSGIYCNWVRQAPGKGLEWVTFISYDSILNVIADSVKGRFTISRDNSKNTLYLQMNSLRAEDTAIYYCARRYRWWGKAMDYWGQGTLVTVSS VL: DIVMTQSPLSLPVTPGEPASISCRSSQTVFDSHGQTYLQWYLQKPGQSPQLLIYGASRQVSGVPDRFSGSGSGTDFTLKISRVEAEDVGVYYCMQVWHLPITFGQGTKLEIKR | 0.0865 | 0.00792 | 6.31 |
| 全抗N-6 (antibody, human IgG1, kappa, V domains shown, also called 抗CTLA-4全抗体N-6) VH: QVQLVESGGGVVQPGRSLRLSCAASGFTFSSNTLRWVRQAPGKGLEWVTFISYDSLFLDQGDSVKGRFTISRDNSKNTLYLQMNSLRAEDTAIYYCARRYRWWGKAMDYWGQGTLVTVSS VL: DIVMTQSPLSLPVTPGEPASISCRSSQTVFDSHGQTYLQWYLQKPGQSPQLLIYGASRQVSGVPDRFSGSGSGTDFTLKISRVEAEDVGVYYCMQVWHLPITFGQGTKLEIKR | 0.127 | 0.00705 | 6.67 |
| 全抗N-5 (antibody, human IgG1, kappa, V domains shown, also called 抗CTLA-4全抗体N-5; N-5的全抗体) VH: QVQLVESGGGVVQPGRSLRLSCAASGFTFSGFFNRWVRQAPGKGLEWVTFISYDALKDFYADSVKGRFTISRDNSKNTLYLQMNSLRAEDTAIYYCARRYRWWGKAMDYWGPGTLVTVSS VL: DIVMTQSPLSLPVTPGEPASISCRSSQTVFDSHGQTYLQWYLQKPGQSPQLLIYGASRQVSGVPDRFSGSGSGTDFTLKISRVEAEDVGVYYCMQVWHLPITFGQGTKLEIKR | 0.0689 | 0.00612 | 4.95 |
| 全抗N-3 (antibody, human IgG1, kappa, V domains shown, also called 抗CTLA-4全抗体N-3) VH: QVQLVESGGGVVQPGRSLRLSCAASGFTFSGIFSSWVRQAPGKGLEWVTFISYDSLKQKDGDSVKGRFTISRDNSKNTLYLQMNSLRAEDTAIYYCARRYRWWGKAMDYWGQGTLVTVSS VL: DIVMTQSPLSLPVTPGEPASISCKSSQSVIDSKGYTYLGWYLQKPGQSPQLLIYLGTQKSSGVPDRFSGSGSGTDFTLKISRVEAEDVGVYYCLQRGHIPITFGQGTKLEIKR | 0.264 | 0.00896 | 14.2 |
